# Test results as given in US9012166B2, “Method for assaying histone methylation enzyme activity” (Kyushu Institute of Technology, priority 2010, dated 2015).
# *: point of attachment. AMC = Cc1cc(=O)oc2cc(N*)ccc12
# Biological target: T1, Set9 (His-Set9, His-Set7/9) (Homo sapiens, UniProt Q8WTS6)
# T1 sequence (Q8WTS6 1-366): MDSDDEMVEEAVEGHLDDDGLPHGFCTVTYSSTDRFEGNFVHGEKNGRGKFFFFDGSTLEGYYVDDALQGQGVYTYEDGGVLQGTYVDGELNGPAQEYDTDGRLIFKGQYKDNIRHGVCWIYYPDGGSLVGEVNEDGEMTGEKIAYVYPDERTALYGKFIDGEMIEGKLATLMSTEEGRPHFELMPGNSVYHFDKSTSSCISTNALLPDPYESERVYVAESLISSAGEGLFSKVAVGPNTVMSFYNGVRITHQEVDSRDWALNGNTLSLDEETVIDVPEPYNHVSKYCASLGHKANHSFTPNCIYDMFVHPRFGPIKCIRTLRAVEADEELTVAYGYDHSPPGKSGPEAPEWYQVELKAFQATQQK
# Assay: Substrate specificity / methylation of peptidyl MCAs by Set9
# Assay type: biochemical
# Settings: Example 6; His-Set9 0-1.5 μg/μL; right panel of FIG. 14
# Description: When Set9 was adopted as a histone methyltransferase, the following method was used. 10 μL of 2×HMT buffer (100 mM Tris-HCl (pH 8.5), 20 mM MgCl2, 40 mM KCl, 20 mM 2-mercaptoethanol, 500 mM sucrose), 2 μL of a BSA solution (30 μg/mL), 3 μL of His-Set9 (0, 0.33 to 10 μg/μL), and 1 μL of distilled water were mixed and then incubated at room temperature for 1 hour. Then, 2 μL of SAM (10 mM) and 2 μL of a peptidyl MCA solution (0.6 mM) were added thereto, which was then incubated at 37° C. for 1 hour. Thereafter, 30 μL of a trypsin solution (20 mg/mL) was added thereto, followed by incubation at 37° C. for 15 minutes. Then, the fluorescence intensity of the solution was measured at an excitation wavelength (λex) of 390 nm and a fluorescence wavelength (λem) of 460 nm. The final concentration of His-Set9 during the measurement of fluorescence intensity was 0, 0.05, 0.15, 0.5, or 1.5 μg/μL. The results of the assay for measuring histone methyltransferase activity are shown in the right panel of FIG. 14.
# When Set9 was adopted as a histone methyltransferase, the following method was used. 10 μL of 2×HMT buffer (100 mM Tris-HCl (pH 8.5), 20 mM MgCl2, 40 mM KCl, 20 mM 2-mercaptoethanol, 500 mM sucrose), 0.4 μL of a BSA solution (150 μg/mL), 5.9 μL of His-Set9 (0, 0.051, 0.17, 0.51, 1.7 μg/μL), and 1.7 μL of distilled water were mixed and then incubated at room temperature for 1 hour. Then, 1 μL of SAM (20 mM) and 1 μL of a peptidyl MCA solution (1.2 mM) were added thereto, which was then incubated at 37° C. for 1 hour. Thereafter, 30 μL of a trypsin solution (20 mg/mL) was added thereto, followed by incubation at 37° C. for 15 minutes. Then, the fluorescence intensity of the solution was measured at an excitation wavelength (λex) of 390 nm and a fluorescence wavelength (λem) of 460 nm. The final concentration of His-Set9 during the measurement of fluorescence intensity was 0, 0.015, 0.05, 0.15, or 0.5 μg/μL. The results of the assay for measuring histone methyltransferase activity are shown in the right panel of FIG. 16.
# When Set7/9 was adopted as a histone methyltransferase, the following method was used. 10 μL of 2×HMT buffer (100 mM Tris-HCl (pH 8.5), 20 mM MgCl2, 40 mM KCl, 20 mM 2-mercaptoethanol, 500 mM sucrose), 0.4 μL of a BSA solution (150 μg/mL), 4 µL of His-Set7/9 (0, 0.025 to 0.75 μg/μL), and 3.6 μL of distilled water were mixed and then incubated at room temperature for 1 hour. Then, 1 μL of SAM (final concentration: 0.1 mM) and 1 μL of a peptidyl MCA solution (1.2 mM) were added thereto, which was then incubated at 37° C. for 1 hour. Thereafter, 30 μL of a trypsin solution (20 mg/mL) was added thereto, followed by incubation at 37° C. for 15 minutes. Then, the fluorescence intensity of the solution was measured at an excitation wavelength (λex) of 330 nm and a fluorescence wavelength (λem) of 380 nm or at an excitation wavelength (λex) of 390 nm and a fluorescence wavelength (λem) of 460 nm. The final concentration of His-Set7/9 during the measurement of fluorescence intensity was 0, 0.005, 0.015, 0.05, or 0.15 μg/μL.
row,Substance,methylation of peptidyl MCA by Set9
1,"Ac-ARK-MCA (Ac-Ala-Arg-Lys-{AMC}; SMILES CC(=O)N[C@@H](C)C(=O)N[C@@H](CCCNC(=N)N)C(=O)N[C@@H](CCCCN)C(=O)Nc1ccc2c(C)cc(=O)oc2c1; listed as Homo sapiens) [Ac-histone H3 (7-9/25-27)-MCA, acetyl-ARK (human histone H3 7-9 or 25-27)-MCA substrate]",little methylation occurred
2,Ac-ARTK-MCA (Ac-ARTK-{AMC}; SMILES CC(=O)N[C@@H](C)C(=O)N[C@@H](CCCNC(=N)N)C(=O)N[C@H](C(=O)N[C@@H](CCCCN)C(=O)Nc1ccc2c(C)cc(=O)oc2c1)[C@@H](C)O; listed as Homo sapiens) [Ac-histone H3 (1-4)-MCA],methylation often occurred
3,Ac-ARTKQTARK-MCA [Ac-histone H3 (1-9)-MCA],little methylation occurred
4,Ac-KAARK-MCA (Ac-KAARK-{AMC}; SMILES CC(=O)N[C@@H](CCCCN)C(=O)N[C@@H](C)C(=O)N[C@@H](C)C(=O)N[C@@H](CCCNC(=N)N)C(=O)N[C@@H](CCCCN)C(=O)Nc1ccc2c(C)cc(=O)oc2c1; listed as Homo sapiens) [Ac-histone H3 (23-27)-MCA],little methylation occurred
5,Ac-LKSK-MCA (Ac-LKSK-{AMC}; SMILES CC(=O)N[C@@H](CC(C)C)C(=O)N[C@@H](CCCCN)C(=O)N[C@@H](CO)C(=O)N[C@@H](CCCCN)C(=O)Nc1ccc2c(C)cc(=O)oc2c1; listed as Homo sapiens) [Ac-p53 (369-372)-MCA],methylation often occurred
6,Ac-QLATKAARK-MCA (Ac-QLATKAARK-{AMC}; SMILES CC(=O)N[C@@H](CCC(N)=O)C(=O)N[C@@H](CC(C)C)C(=O)N[C@@H](C)C(=O)N[C@H](C(=O)N[C@@H](CCCCN)C(=O)N[C@@H](C)C(=O)N[C@@H](C)C(=O)N[C@@H](CCCNC(=N)N)C(=O)N[C@@H](CCCCN)C(=O)Nc1ccc2c(C)cc(=O)oc2c1)[C@@H](C)O; listed as Homo sapiens) [Ac-histone H3 (19-27)-MCA],little methylation occurred
7,Ac-QTARK-MCA [Ac-histone H3 (5-9)-MCA],little methylation occurred

# Same assay, conditions: Example 13; AMC and peptidyl MCA fluorescence; FIGS. 25 and 26
row,Substance,methylation of peptidyl MCA by His-Set7/9
1,Ac-ARTKQTARK-MCA [Ac-histone H3 (1-9)-MCA],does not methylate
2,Ac-KRSK-MCA (Ac-KRSK-{AMC}; SMILES CC(=O)N[C@@H](CCCCN)C(=O)N[C@@H](CCCNC(=N)N)C(=O)N[C@@H](CO)C(=O)N[C@@H](CCCCN)C(=O)Nc1ccc2c(C)cc(=O)oc2c1; listed as Homo sapiens) [Ac-ERα (299-302)-MCA],methylates
